Data as given in PMC12095639.

Target: Ankyrin and SOCS Box-containing protein-10 (Asb10), rat, FLAG-tagged, expressed from adenovirus (Ad-Asb10) (rat)
Experiment: co-IP; NRVMs overexpressing Asb10; lysates incubated with antibody and Protein A&G magnet beads overnight at 4 °C, washed 5 times with 0.5% PBST; western blot of candidate interacting proteins (Fig. 3C)

**Q.** For “HSC70, endogenous in NRVMs (from UniProt P63018 1-646) (natural protein)”, which fold weaker binding than HSP70 with Asb10 is on record?
**A.** 10 fold
